In series [1] the test system is Fr-MLV LTR enhancer acting on GFP gene in HeLa cells. The experiment in a line: First generation two-reporter (DsRed/GFP) enhancer-blocking assay, transient transfection, FACS. In kind it is cell-based, human. As to conditions: element interposed between enhancer and GFP gene. An excerpt:
The strategy elaborated by Applicants to address the potential enhancer-blocking activity of genetic elements consists in setting up a two-reporter genes-assay whereby the potency of suspected insulators can be quantified. A series of plasmids were thus designed, containing a combination of two reporter genes: a DsRed gene, used as the assay system internal control, under the control of a Fr-MLV LTR enhancer/promoter, and a GFP gene under the control of a minimal CMV promoter, but also subjected to the influence of the LTR enhancer. […] By analyzing the expression of both reporter genes by flow cytometry, this system provides a standardized quantitative procedure to assess potential insulator elements. […]
The constructs described in FIG. 14 were used to transfect transiently HeLa cells. The expression of both DsRed and GFP was analyzed by FACS. […]
HeLa cells were transfected with pAG1-3-HS4 (left panel) or pAG1-3-2HS4 (right panel) constructs (respectively constructs #4 and #5 on FIG. 30), and 100′000 cells were analyzed 48 hours later. […]
HeLa cell populations transiently transfected with constructs containing either no cHS4 (noins) or a copy at the GFP extremity (HS4) or two copies flanking the GFP gene (2HS4) were analyzed by FACS. Percentages of GFP-expressing cells (left panel) and GFP mean fluorescence in RLU (right panel) are plotted for each case.

The next series concerns HeLa cells. The experiment in a line: Barrier assay: SV40 promoter/GFP transgene flanked by elements, stable transfection, FACS. The series is classed as cell-based, human. An excerpt:
Nevertheless, whether it may also function as a barrier element upon transgene integration at internal chromosomal loci has not been assessed. The CTF/NFI adeno. (5 bp spacing) or CTCF binding sites were sub-cloned on each side of a SV40 promoter/GFP gene cassette, to address the potential barrier properties of these sequences at random chromosomal locations (FIG. 29A). A multiple cloning site spacer element was cloned in place of the insulators in the negative control plasmid, while the 1-68 matrix attachment region (MAR) element that potently abrogates silencing effects was used as positive control (Girod et al., 2007).
These constructs were stably transfected in HeLa cells, and the GFP fluorescence profile was assessed for each construct on the polyclonal cell population. The distribution of the cell fluorescence in the populations varied from one construct to another but nevertheless yielded reproducible patterns of cells displaying distinct levels of GFP expression. The fluorescence profiles were used to define 3 sub-populations of GFP-positive cells termed M1, M2 and M3, which designate low, medium, and high GFP expression ranges (FIG. 29B). Cells whose fluorescence profile overlapped with the profile of non-transfected cells were considered as non-expressing cells.
(A) Schematic representation of the insulated GFP transgene. GFP expression was driven by a SV40 promoter and the effect of elements inserted on both sides of the transgene was evaluated in stable transfections of HeLa cells.
(B) Results of representative FACS analysis for GFP expression of HeLa cell populations stably transfected with constructs described in panel A (16 days after transfection). The GFP transgene was flanked by either a multiple cloning site (MCS), or 7 binding sites for CTF/NFI (Adeno., 5 bp spacing), or one copy of the 1-68 MAR element. The profile of non-transfected cells is depicted in grey. […]

The mark [2] stands for this setting: HeLa stable, relative to GFP-positive cells.

Data on one molecule can be found in patent US20110294873A1, “Gene Transfer Vectors Comprising At Least One Isolated DNA Molecule Having Insulator Or Boundary Properties And Methods To Identify The Same” (UNIVERSITÉ DE LAUSANNE, priority 2008, published 2011).

B1: Ins2: 7 direct repeats of the CTF/NF1 binding site from adenovirus type II origin of replication, 5 bp spacing (nucleic acid)
DNA: ATCGATAAGCTTGCATTGGCAACGTGCCATAAGCATTGGCAACGTGCCATAAGCATTGGCAACGTGCCATAAGCATTGGCAACGTGCCATAAGCATTGGCAACGTGCCATAAGCATTGGCAACGTGCCATAAGCATTGGCAACGTGCCATAAGCGGGGGGATCC
modifications: 7xCTF/NF1 from adenovirus type II
As to B1, the “decrease of mean fluorescence of GFP-positive cells” value in series [1] is “approximately three-fold”. In addition, in the series with HeLa cells (setting [2]), the “cells in M1 sub-population (low GFP)” value was “one third” and the “cells in M3 sub-population (high GFP)” value is given as around 10%. The “GFP transgene expression over time (anti-silencing effect)” value with HeLa cells (stably transfected polyclonal HeLa pools, up to one month) was “stable and can withstand cell division”.
